Test results reported in patent US12590158 (XIYUAN ANJIAN MEDICINE SHANGHAI, dated 2026).
Read-outs that look alike come from different tables or passages of the source.

Experiments:
[1] = target: T1, full-length human TrkA expressed on cells (human, UniProt P04629 33-796); experiment: flow cytometry titration on TrkA/CHO cells
T1 construct: whole, on cells; also called TrkA/CHO; TrkA/Ba/F3
Experimental: (§1) The cells were cultured according to the manufacturer's instruction. The cells were harvested in the logarithmic growth phase, re-suspended in flow buffer (PBS+2% FBS, pH 7.4), and added into 96-well plate, 10^5 cells per well (50 µl). 50 µl of 100 µg/mL humanized anti-TrkA antibody was added, incubated at room temperature for 60 min, and centrifuged at 1200 rpm. The supernatant was discarded and the cells were washed 3 times. FITC-labeled goat anti-human Fc antibody (Abeam, ab97224) was diluted to 5 µg/mL with flow buffer and used to re-suspend the cells, incubated at room temperature for 30 min in the dark, centrifuged, and the supernatant was discarded. After washing 3 times, the cells were re-suspended with 7AAD solution (Biolegend, 420403), incubated for 10 min at room temperature, and the binding of the antibody was detected with a flow cytometer (BioRad, ZE5).
The binding curve of the humanized anti-TrkA antibodies and TrkA/CHO cells was detected with the same flow cytometry.

[2] = target: T2, human TrkA extracellular region (33-417) protein containing mouse Fc (human, UniProt P04629 33-417); experiment: ELISA, coated human TrkA (33-417)-mouse Fc, anti-human IgG-HRP
T2 construct: range 33-417
T2 sequence (P04629 33-417 limits assumed): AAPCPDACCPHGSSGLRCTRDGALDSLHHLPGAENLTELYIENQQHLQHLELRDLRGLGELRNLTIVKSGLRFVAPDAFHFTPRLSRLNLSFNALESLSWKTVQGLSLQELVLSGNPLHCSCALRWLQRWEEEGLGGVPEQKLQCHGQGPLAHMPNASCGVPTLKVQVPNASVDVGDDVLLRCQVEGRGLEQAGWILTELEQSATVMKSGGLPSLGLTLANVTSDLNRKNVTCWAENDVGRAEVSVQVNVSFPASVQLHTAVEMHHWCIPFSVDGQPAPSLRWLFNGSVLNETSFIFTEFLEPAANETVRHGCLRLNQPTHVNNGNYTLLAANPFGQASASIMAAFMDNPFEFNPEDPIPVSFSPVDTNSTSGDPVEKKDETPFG
Experimental: Each well of a 96-well microtiter plate was coated with 50 ng of human TrkA, washed and blocked, then added with serially diluted humanized antibodies, and incubated for 1 hour at room temperature. After washing three times, horseradish peroxidase-conjugated goat anti-human IgG antibody (ThermoFisher, A18817) was added and reacted at room temperature for 1 hour. After washing three time, tetramethylbenzidine (TMB, Biolegend) was added for color development. 1M HCl was used to terminate the color development, and the absorbance values were read at 450 nm with a microplate reader.

[3] = target: T1, full-length human TrkA expressed on …; experiment: cell-based or functional assay
[4] = target: T3, human TrkC expressed on CHO cells (TrkC/CHO, ThermoFisher K1515) (human, UniProt Q16288 32-839); experiment: flow cytometry on TrkC/CHO cells, FITC goat anti-human Fc
T3 construct: whole, on cells
T3 sequence (Q16288 32-839): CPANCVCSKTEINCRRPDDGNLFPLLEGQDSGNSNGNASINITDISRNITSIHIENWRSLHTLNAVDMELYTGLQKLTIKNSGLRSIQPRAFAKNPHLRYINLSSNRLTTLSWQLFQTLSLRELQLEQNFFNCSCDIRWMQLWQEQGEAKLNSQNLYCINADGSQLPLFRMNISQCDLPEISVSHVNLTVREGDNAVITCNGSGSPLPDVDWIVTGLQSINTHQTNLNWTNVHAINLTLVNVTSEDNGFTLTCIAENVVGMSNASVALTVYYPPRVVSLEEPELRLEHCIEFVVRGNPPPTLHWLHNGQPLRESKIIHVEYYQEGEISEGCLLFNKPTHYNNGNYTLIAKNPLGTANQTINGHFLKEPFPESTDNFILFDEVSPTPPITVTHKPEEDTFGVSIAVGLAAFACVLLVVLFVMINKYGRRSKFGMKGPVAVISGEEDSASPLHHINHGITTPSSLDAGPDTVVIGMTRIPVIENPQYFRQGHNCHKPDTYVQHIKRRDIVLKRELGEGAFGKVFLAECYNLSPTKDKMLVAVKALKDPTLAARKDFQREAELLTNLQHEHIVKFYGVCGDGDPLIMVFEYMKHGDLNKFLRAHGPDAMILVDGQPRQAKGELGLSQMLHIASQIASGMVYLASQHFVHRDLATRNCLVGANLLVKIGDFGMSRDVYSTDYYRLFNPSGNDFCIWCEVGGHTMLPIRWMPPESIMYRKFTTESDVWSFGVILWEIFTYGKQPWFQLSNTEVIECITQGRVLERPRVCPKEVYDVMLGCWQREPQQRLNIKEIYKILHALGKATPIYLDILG
Experimental: (§2) CHO-K1 was used as a negative control. The binding of the humanized antibodies to the four cell lines was detected by flow cytometry.
as §1

[5] = target: T4, human TrkB expressed on CHO cells (TrkB/CHO, ThermoFisher K1491) (human, UniProt Q16620 32-822); experiment: flow cytometry on TrkB/CHO cells, FITC goat anti-human Fc
T4 construct: whole, on cells
T4 sequence (Q16620 32-822): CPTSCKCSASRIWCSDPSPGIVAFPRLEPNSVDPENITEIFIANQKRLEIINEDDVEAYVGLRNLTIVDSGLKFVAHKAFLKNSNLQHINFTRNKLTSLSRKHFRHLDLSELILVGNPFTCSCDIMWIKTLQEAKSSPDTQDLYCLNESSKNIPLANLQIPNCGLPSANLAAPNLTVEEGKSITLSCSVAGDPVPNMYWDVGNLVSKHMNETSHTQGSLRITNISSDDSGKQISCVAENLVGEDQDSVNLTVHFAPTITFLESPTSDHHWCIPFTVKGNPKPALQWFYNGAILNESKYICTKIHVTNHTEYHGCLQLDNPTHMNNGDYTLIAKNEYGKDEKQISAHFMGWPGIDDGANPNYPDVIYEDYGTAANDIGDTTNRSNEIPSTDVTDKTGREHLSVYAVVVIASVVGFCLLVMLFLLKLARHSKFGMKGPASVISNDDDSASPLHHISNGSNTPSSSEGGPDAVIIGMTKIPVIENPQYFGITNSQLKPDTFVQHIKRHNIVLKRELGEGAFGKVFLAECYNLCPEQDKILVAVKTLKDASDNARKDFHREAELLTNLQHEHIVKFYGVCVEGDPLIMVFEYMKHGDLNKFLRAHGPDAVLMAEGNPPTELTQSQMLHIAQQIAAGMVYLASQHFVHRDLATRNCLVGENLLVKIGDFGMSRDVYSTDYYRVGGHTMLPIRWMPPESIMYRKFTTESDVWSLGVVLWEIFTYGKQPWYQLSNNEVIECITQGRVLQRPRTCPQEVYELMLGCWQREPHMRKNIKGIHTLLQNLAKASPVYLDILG
Experimental: as §2, §1

[6] = target: T1, full-length human TrkA expressed on …; experiment: cell-based or functional assay; remark: listed apart in the source
[7] = target: T5, TrkA extracellular region (33-417) protein comprising human Fc (ACROBiosystems TRA-H5259) (human, UniProt P04629 33-417); experiment: BLI (ForteBio Octet Red96), TrkA (33-417)-hFc captured on anti-human Fc sensor, antibody in solution
T5 construct: range 33-417; Bought fusion protein; also called human TrkA (33-417); human TrkA extracellular region
T5 sequence (P04629 33-417 limits assumed): as the sequence (P04629 33-417 limits assumed) above
From the text: Example 3: Affinity Assay of Murine Anti-TrkA Antibodies Binding to Human TrkA The affinities of the antibodies were detected with Biomolecular Interaction Detection Platform (ForteBio Octet Red96 (PALL)).
Human TrkA extracellular region (33-417) protein containing human Fc tag was fixed onto a chip by using an anti-human Fc capture sensor (Fortebio, 18-5088), and then bound to gradient concentrations of anti-TrkA antibody.

[8] = target: T6, rat TrkA extracellular region fusion protein (fused to human Fc) (Yiqiao Shenzhou 80243-R03H) (rat, UniProt P35739 33-418); experiment: ELISA, plate coated with rat TrkA extracellular region-hFc, HRP goat anti-mouse Fc detection
T6 construct: extracellular domain; Bought fusion protein
T6 sequence (P35739 33-418, stated change not applied): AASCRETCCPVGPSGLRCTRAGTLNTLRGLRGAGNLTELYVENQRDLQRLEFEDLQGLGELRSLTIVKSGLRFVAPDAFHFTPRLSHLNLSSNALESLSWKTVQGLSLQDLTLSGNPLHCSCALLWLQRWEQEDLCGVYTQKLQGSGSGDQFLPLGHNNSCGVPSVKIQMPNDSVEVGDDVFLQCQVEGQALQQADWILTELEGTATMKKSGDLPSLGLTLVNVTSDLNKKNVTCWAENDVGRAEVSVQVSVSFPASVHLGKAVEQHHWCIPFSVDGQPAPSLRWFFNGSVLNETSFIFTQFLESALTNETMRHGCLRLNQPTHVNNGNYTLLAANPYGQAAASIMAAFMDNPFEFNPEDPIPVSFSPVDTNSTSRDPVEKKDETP
Experimental: (§3) Example 2: ELISA Detection of the Binding of Murine Anti-TrkA Antibodies to Human TrkA The binding abilities of the anti-TrkA antibodies were detected by using a TrkA extracellular region (33-417) protein comprising human Fc (Beijing ACROBiosystems Co., Ltd., TRA-H5259). Each well of a 96-well microtiter plate was coated with 50 ng of human TrkA, washed and blocked, and then added with serially diluted antibodies, and incubated at room temperature for 1 hour. After washing three times, horseradish peroxidase-conjugated goat anti-mouse Fc antibody (Biolegend, 405306) was added and incubated at room temperature for 1 hour. After washing three time, tetramethylbenzidine (TMB, Biolegend, 421101) was added for color development. 1M HCl was used to terminate the color development, and the absorbance values were read at 450 nm with a microplate reader.
(§4) In addition, the species cross-reactivities of anti-TrkA antibodies were detected with monkey TrkA (Hangzhou Haoyang Biotechnology Co., Ltd., HSP037-05), rat TrkA (Beijing Yiqiao Shenzhou Technology Co., Ltd., 80243-R03H), mouse TrkA (Beijing Yiqiao Shenzhou Technology Co., Ltd., 51103-M02H) extracellular region fusion protein (fused to human Fc).

[9] = target: T5, TrkA extracellular region (33-417) …; experiment: ELISA, coated human TrkA (33-417)-hFc, anti-mouse Fc-HRP
Experimental: as §3

[10] = target: T1, full-length human TrkA expressed on …; experiment: cell-based or functional assay; remark: listed apart in the source
[11] = target: T7, human TrkC extracellular region protein (Yiqiao Shenzhou 10048-H03H) (human, UniProt Q16288 32-429); experiment: ELISA, plate coated with human TrkC extracellular region protein, HRP goat anti-mouse Fc detection
T7 construct: extracellular domain; Bought protein
Experimental: as §3
(§5) Example 7: Detection of the Binding of Murine Anti-TrkA Antibodies to TrkA Proteins of the Same Family Each well of a 96-well microtiter plate was coated with 50 ng of human TrkA extracellular region protein, human TrkB extracellular region protein (Beijing Yiqiao Shenzhou Technology Co., Ltd., 10047-H03H), human TrkC extracellular region protein (Beijing Yiqiao Shenzhou Technology Co., Ltd., 10048-H03H). The bindings of the anti-TrkA antibodies to human TrkA and the two proteins of the same family were detected according to the method described in Example 2.

[12] = target: fusion protein (fused to human Fc) containing only the portion of human TrkA extracellular region that binds NGF (TrkA 192-402) (ACROBiosystems TRA-H5258) (human) (UniProt P04629); experiment: ELISA, coated human TrkA (192-402)-hFc
Chain of fusion protein (fused to human Fc) containing only the portion of human TrkA extracellular region that binds NGF (TrkA 192-402) (ACROBiosystems TRA-H5258) (human) (P04629 192-402 limits assumed, form in doubt): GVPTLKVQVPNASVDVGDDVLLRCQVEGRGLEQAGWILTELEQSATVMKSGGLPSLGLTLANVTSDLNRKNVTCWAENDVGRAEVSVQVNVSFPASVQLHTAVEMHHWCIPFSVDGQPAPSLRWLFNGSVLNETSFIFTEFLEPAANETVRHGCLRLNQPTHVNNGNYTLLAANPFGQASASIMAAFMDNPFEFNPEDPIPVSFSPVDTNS

[13] = target: T1, full-length human TrkA expressed on …; experiment: cell-based or functional assay; remark: listed apart in the source
[14] = target: T5, TrkA extracellular region (33-417) …; experiment: competition ELISA, coated TrkA (33-417)-hFc, antibody titrated, competitor biotin-labeled human NGF
Experimental: Each well of a 96-well microtiter plate was coated with 50 ng of TrkA extracellular region (33-417) protein fused to human Fc, washed three times and blocked with 3% BSA for 1 hour. […] Each well was added with 100 μl and incubated at room temperature for 30 minutes. […] Streptavidin-labeled horseradish peroxidase (Streptavidin-HRP, Biolegend, 405210) was added and incubated for 0.5 hours. After washing three times, TMB was added to the plate, and the absorbance at 450 nm was read by a microplate reader after the color development was terminated.

[15] = target: T1, full-length human TrkA expressed on …; experiment: cell-based or functional assay; remark: listed apart in the source
[16] = target: T8, mouse TrkA extracellular region fusion protein (fused to human Fc) (Yiqiao Shenzhou 51103-M02H) (mouse, UniProt Q3UFB7 34-420); experiment: ELISA, plate coated with mouse TrkA extracellular region-hFc, HRP goat anti-mouse Fc detection
T8 construct: extracellular domain; Bought fusion protein
T8 sequence (Q3UFB7 34-420, stated change not applied): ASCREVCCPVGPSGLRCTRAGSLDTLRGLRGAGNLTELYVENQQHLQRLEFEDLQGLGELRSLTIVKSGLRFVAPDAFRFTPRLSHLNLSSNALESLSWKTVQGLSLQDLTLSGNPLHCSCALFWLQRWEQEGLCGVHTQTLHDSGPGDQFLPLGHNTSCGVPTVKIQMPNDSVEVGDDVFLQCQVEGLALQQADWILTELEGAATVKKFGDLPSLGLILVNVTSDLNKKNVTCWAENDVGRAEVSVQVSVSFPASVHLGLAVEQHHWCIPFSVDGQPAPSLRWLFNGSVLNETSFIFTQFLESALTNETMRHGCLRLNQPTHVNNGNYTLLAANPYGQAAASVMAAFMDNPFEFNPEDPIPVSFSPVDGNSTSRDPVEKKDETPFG
Experimental: as §3, §4

[17] = target: T9, human TrkB extracellular region protein (Yiqiao Shenzhou 10047-H03H) (human, UniProt Q16620 32-430); experiment: ELISA, plate coated with human TrkB extracellular region protein, HRP goat anti-mouse Fc detection
T9 construct: extracellular domain; Bought protein
T9 sequence (Q16620 32-430): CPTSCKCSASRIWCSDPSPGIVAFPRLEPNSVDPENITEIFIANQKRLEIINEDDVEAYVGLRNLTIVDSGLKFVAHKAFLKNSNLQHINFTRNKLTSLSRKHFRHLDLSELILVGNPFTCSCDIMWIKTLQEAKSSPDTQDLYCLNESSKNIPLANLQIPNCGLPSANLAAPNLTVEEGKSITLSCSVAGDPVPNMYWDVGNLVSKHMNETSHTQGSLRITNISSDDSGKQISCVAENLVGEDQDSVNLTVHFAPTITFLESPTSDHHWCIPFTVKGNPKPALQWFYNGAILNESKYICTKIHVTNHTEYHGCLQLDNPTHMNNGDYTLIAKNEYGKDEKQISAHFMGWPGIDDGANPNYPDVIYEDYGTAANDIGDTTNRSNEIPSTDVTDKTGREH
Experimental: as §3, §5

T1 sequence (P04629 33-796): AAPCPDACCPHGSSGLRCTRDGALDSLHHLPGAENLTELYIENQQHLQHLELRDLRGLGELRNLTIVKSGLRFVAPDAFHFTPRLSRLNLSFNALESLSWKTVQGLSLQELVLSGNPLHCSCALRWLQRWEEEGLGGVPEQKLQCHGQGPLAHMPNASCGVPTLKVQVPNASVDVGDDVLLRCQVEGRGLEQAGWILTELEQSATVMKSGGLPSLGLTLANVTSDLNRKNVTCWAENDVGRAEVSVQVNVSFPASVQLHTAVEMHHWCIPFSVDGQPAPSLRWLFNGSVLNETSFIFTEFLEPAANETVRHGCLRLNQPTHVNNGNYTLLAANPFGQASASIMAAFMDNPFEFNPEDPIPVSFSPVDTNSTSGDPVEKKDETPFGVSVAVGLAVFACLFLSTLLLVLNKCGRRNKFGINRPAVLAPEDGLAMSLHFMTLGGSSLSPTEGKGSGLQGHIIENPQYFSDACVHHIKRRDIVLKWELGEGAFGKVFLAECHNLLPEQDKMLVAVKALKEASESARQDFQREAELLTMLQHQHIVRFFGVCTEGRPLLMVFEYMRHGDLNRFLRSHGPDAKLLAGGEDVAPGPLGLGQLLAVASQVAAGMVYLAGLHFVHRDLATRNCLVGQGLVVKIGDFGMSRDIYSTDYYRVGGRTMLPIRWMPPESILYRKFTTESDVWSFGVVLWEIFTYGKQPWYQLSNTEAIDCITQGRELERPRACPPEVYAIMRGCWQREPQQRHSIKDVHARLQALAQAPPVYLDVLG

Binder	EC50 [1] [nM]	EC50 [2] [nM]	IC50 of inhibiting NGF-induced TF-1 cell proliferation [3] [nM]	binding result [4]	binding result [5]	IC50 of inhibiting NGF-induced TrkA/Ba/F3 cell proliferation [6] [nM]	Kd [7] [nM]	koff [7] [s⁻¹]	kon [7] [M⁻¹ s⁻¹]	binding result [8]	EC50 [9] [nM]	inhibition of NGF-induced TrkA/Ba/F3 cell proliferation at 2.5 µg/mL (16.67 nM) or higher [10] [%]	binding result [11]	EC50 [12] [nM]	IC50 of inhibiting NGF-induced TF-1 cell proliferation [13] [nM]	IC50 [14] [nM]	IC50 of inhibiting NGF-induced TrkA/Ba/F3 cell proliferation [15] [nM]	binding result [16]	binding result [17]
human-mouse chimeric antibody 42F5-Chi (antibody, V domains shown) VH: QVQLQQPGAELVKPGASVKLSCKSSGYTFTNYWMHWVRQRPGQGLEWIGEIYPNNGRVNYNEKFKNRATLTVDISSSTAYMQLSSLTSEDSAVYYCARSRYDPMEDWGQGTSVTVSS VL: QVVLTQSPAIMSASPGEKVTMTCSASSSVGYMHWYQQKSGTSPKRWIYDTSKLASGVPTRFSGSGSGTSYSLTISSMEAEDAATYFCQQWSSIPLTFGSGTRLEIK	0.49	0.062	1.55	no binding	no binding	2.92													
anti-TrkA antibody 42H6 (antibody, V domains shown, Murine monoclonal antibody purified from hybridoma medium by protein G) VH: QVQLQQPGVELVKPGASVKLSCKTSGYTFTSYWMHWVKQRPGQGLEWIGEIYSSNGLTNYNEKFKNKATLTVDKSSSTAYMQLTSLTSEDSAIYYCARHWYVFLDHWGQGTTLTVSS VL: QAVVTQESALTTSPGETVTLTCRSSTGAVTTSNHANWVQEKPDHLFTGLIGGINNRAPGVPARFSGSLIGDKAALTITGAQTEDEAIYFCALWYSNHWVFGGGTRLTVL							0.00677	9.91e-06	1.47e+06	binds	0.135	100	no binding (tested: 66.67 nM)	0.175	3.58	2.19	0.782	binds	no binding (tested: 66.67 nM)
anti-TrkA antibody 42A11 (antibody, V domains shown, Murine monoclonal antibody purified from hybridoma medium by protein G) VH: QVQLQQPGAELVKPGASVKLSCKASGYTFTNYWMHWVKQRPGQGLEWIGEIYPSNGRTNYNEKFKTKATLTVDKSSSTAYMHLSSLTSEDSAVYYCAGSRYDAMDFWGQGTSVTVSS VL: QIVLTQSPAIMSASPGEKVTMTCSASSIISYMHWYQQKSGTSPKRWIYDTSKLASGVPARFSGSGSGTSYSLTISGMEAEDAATYYCHQWTSNPLTFGGGTKLELK							0.00142	1.26e-06	889000	binds	0.187	100	no binding (tested: 66.67 nM)	0.234	1.46	2.05	0.738	binds	no binding (tested: 66.67 nM)
humanized anti-TrkA antibody 42F5-01 (antibody, V domains shown, VH grafted to human IgG4 heavy chain constant region, VL to human Kappa light chain constant region; also called 43F5-01 [sic]) VH: QVQLVQSGAEVKKPGASVKVSCKSSGYTFTNYWMHWVRQAPGQGLEWMGEIYPNNGRVNYNEKFKNRVTMTVDISISTAYMELSRLRSDDTAVYYCARSRYDPMEDWGQGTTVTVSS VL: DVQLTQSPSSLSASVGDRVTITCSASSSVGYMHWYQQKPGKAPKRLIYDTSKLASGVPSRFSGSGSGTDYTLTISSLQPEDFATYFCQQWSSIPLTFGQGTRLEIK	0.605	0.061	1.57	no binding	no binding	2.97													
humanized anti-TrkA antibody 42F5-05 (antibody, V domains shown, VH grafted to human IgG4 heavy chain constant region, VL to human Kappa light chain constant region) VH: QVQLVQSGAEVKKPGASVKVSCKSSGYTFTNYWMHWVRQAPGQGLEWMGEIYPNNGRVNYNEKFKNRVTMTVDISISTAYMELSRLRSDDTAVYYCARSRYDPMEDWGQGTTVTVSS VL: QVQLTQSPSSLSASVGDRVTITCSASSSVGYMHWYQQKPGKAPKRLIYDTSKLASGVPSRFSGSGSGTDYTLTISSLQPEDFATYFCQQWSSIPLTFGQGTRLEIK	0.68	0.072	1.48	no binding	no binding	4.42													
